The record followed here is PMC6153374.

This test deals with E. coli derived recombinant CRM197 (cross reacting material 197) (Corynebacterium diphtheriae C7 (β197)). The test is described as follows: crystal structure; sitting drop, room temperature; 22.9 mg/ml protein in 0.15 M NaCl, 0.01 M Tris/HCl pH 8.3 mixed 1:1 with 0.2 M lithium sulfate, 0.1 M Bis-Tris pH 5.5, 25% (w/v) PEG 3350; data at 100 K; four molecules in the asymmetric unit (two domain-swapped dimers).

For orientation: stoichiometry N means a count of units in the complex or per binding partner. For “E. coli derived recombinant CRM197 (cross reacting material 197) (natural protein)”, the stoichiometry N is 2.
